Square brackets hold non-standard residues; d marks the D form. Ends that are not written are not given here. pY = N[C@@H](Cc1ccc(OP(=O)(O)O)cc1)C(=O)O; pT = C[C@@H](OP(=O)(O)O)[C@H](N)C(=O)O; pS = N[C@@H](COP(=O)(O)O)C(=O)O
T1: tandem SH2 domain of C. glabrata Spt6 (Spt6-tSH2) (C. glabrata, UniProt Q6FLB1 1250-1444)
T1 sequence (looked up): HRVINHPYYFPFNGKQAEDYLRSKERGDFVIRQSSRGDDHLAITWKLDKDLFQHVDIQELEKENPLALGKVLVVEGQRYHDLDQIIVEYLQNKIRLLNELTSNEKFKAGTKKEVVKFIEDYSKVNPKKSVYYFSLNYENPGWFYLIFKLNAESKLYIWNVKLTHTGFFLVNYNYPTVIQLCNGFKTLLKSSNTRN

B1: (pT4-CTD)2 (peptide)
peptide: {5,6‑FAM}-PSYSP[pT]SPSYSP[pT]SPS
B2: Nrd1 Interaction Motif (NIM) peptide from Trf4 (peptide)
peptide: DDDEDGYNPYTL
B3: (pY1pS2-CTD)2 (peptide)
peptide: {5,6‑FAM}-PS[pY][pS]PTSPS[pY][pS]PTSPS
B4: PS(YSPTSPS)(pYSPTSPS) (peptide)
peptide: {5,6‑FAM}-PSYSPTSPS[pY]SPTSPS
B5: PS(pYSPTSPS)(YSPTSPS) (peptide)
peptide: {5,6‑FAM}-PS[pY]SPTSPSYSPTSPS
B6: PS(YpSPpTSPS)(YSPTSPS) (peptide)
peptide: {5,6‑FAM}-PSY[pS]P[pT]SPSYSPTSPS
B7: (pY1pS5-CTD)2 (peptide)
peptide: {5,6‑FAM}-PS[pY]SPT[pS]PS[pY]SPT[pS]PS
B8: (pY1-CTD)1 (peptide)
peptide: {5,6‑FAM}-PS[pY]SPTSPS

These binders were tested against T1, tandem SH2 domain of C. glabrata Spt6 … (assay: fluorescence polarisation).

Row | Binder | Kd
1 | B1 | 7.2 µM
2 | B2 | 3.3 µM
3 | B3 | 0.3 µM
4 | B4 | 36.8 µM
5 | B5 | 45.4 µM
6 | B6 | 5.7 µM
7 | B7 | 0.3 µM
8 | B8 | 38.7 µM

Source: publication PMC7327521 (Journal of Molecular Biology, 2020)
